Molecular target: PCSK9抗原 (前蛋白转化酶枯草溶菌素9, Proprotein convertase subtilisin/kexin type 9)
Assay: SPR, Biacore T200, PCSK9 coupled to CM5 chip (~790 RU), VHH as analyte 218-13.5 nM

- Kd: 2.63 nM
- koff: 0.000584 s⁻¹
- kon: 222000 M⁻¹ s⁻¹
B1: PCSK9单域抗体VHHH12 (VHH)
VHH: QVQLQESGGGLVQAGGSLRLSCAASGRTFSDYAVGWFRQAPGKEREFVAGIGWSGGQTTYADSVKGRFTISRDNAKDTVYLQMNSLKPEDTAVYVCAASFLVIPGTVKTRYDSWGQGTQVTVPA
notes: Alpaca VHH expressed from pMECS in E. coli HB2151 and purified on a Ni column; also called 抗PCSK9单域抗体VHHH12; PCSK9单域抗体蛋白VHHH12; not shown: C-terminal tags from the pMECS vector (HA tag, detected with anti-HA antibody)
